{"source": "patent US20090048158A1", "about": "“Insulin-Like Growth Factor Binding Protein-4 Compounds and Methods for Inhibiting Angiogenesis and Tumor Growth in Mammalian Cells” (priority 2005, published 2009)", "system": "human brain endothelial cells (HBEC)", "assay": "Confocal microscopy internalization", "format": "cell-based", "conditions": "100 nM AF647-CBP-4, 90 min (labelled IGFBP-4: unpublished observation)", "description": "HBEC (100000 cell/well in a 24-well format plate) were seeded on human fibronectin- (40 μg/ml) coated cover slips (Bellco Biotechnology) in 400 μl HBEC media and grown until reached 80% confluence. Cells were then washed twice with D-MEM and incubated in D-MEM for 30 min at 37 C. Then, D-MEM was removed and replaced with 250 μl/well of D-MEM containing 100 nM AF647-CBP-4 conjugate for 90 min and then washed with PBS. Cells were counterstained with the membrane dye DiOC5(3) for 15 seconds and then washed with PBS. Imaging of cells was performed using Zeiss LSM 410 (Carl Zeiss, Thornwood, N.Y., USA) inverted laser scanning microscope equipped with an Argon\\Krypton ion laser and a Plan-Apochromat 63X, NA 1.4. Confocal images of two fluoroprobes were sequentially obtained using 488 and 647 nm excitation laser lines to detect DiOC5(3) (510-525 nm emission) and Alexa 647 fluorescence (670-810 nm emission).", "data": [{"molecule": "fluorescently-labeled IGFBP-4: fluorescently-labeled IGFBP-4, unpublished observations (conjugate, UniProt P22692 22-258, looked up, fluorescent label, fluorescently-labeled IGFBP-4, unpublished observations) Insulin-like growth …: DEAIHCPPCSEEKLARCRPPVGCEELVREPGCGCCATCALGLGMPCGVYTPRCGSGLRCYPPRGVEKPLHTLMHGQGVCMELAEIEAIQESLQPSDKDEGDHPNNSFSPCSAHDRRCLQKHFAKIRDRSTSGGKMKVNGAPREDARPVPQGSCQSELHRALERLAASQSRTHEDLYIIPIPNCDRNGNFHPKQCHPALDGQRGKCWCVDRKTGVKLPGGLEPKGELDCHQLADSFRE", "values": [{"measurement": "internalization into HBEC", "result": "internalized into HBEC"}]}]}
